{
  "source": "paper PMC9351184",
  "about": "“Survey of the binding preferences of RNA-binding proteins to RNA editing events”",
  "molecular_target": "ILF3 dsRBD;hnRNPC dsRBD (Homo sapiens;Homo sapiens, UniProt Q12906;P07910 398-590;16-57, |)",
  "assay": "EMSA; both proteins pooled; simultaneous binding; 1 uM labelled RNA, 3 uM protein, 10 ul, on ice 45 min; 6% PAGE in 0.5x TBE (gel pre-run at 4 C); binding buffer, salt and pH not stated (proteins dialyzed in 25 mM Tris-HCl pH 8.0, 150 mM NaCl; final elution from cation exchange/heparin up to 1 M NaCl, then SEC)",
  "conditions": "protein: recombinant;recombinant, tags: N-terminal GST (pGood6p), removed with TEV;10xHis (pSUMOH10), label: 5' DY781",
  "data": [
    {"binder": "AGUGGCUUAUGCCUGUGAUCCCAACAC (ssRNA, A-to-I editing site represented by G as printed (A/G); inosine not stated)", "note": "[edited RNA]", "values": [
      {"measurement": "binding result", "value": "binds"}
    ]}
  ]
}
